In US20210380685A1 one finds CMC activities, maximum killing and CMC killing of surrogate target cells, EC50 data, which are given here for one molecule.

The target of test [1] is LRID Fab fused to the GPI signal sequence from decay accelerating factor, on SP2/0 cells (Fab-GPI). Put plainly: cell-based or functional assay.
Test [2] concerns the target LRID Fab fused to the transmembrane portion of glycophorin A, on SP2/0 cells (Fab-GlycoA). Put plainly: cell-based or functional assay.

Chain of LRID Fab fused to the transmembrane portion of glycophorin A, on SP2/0 cells (Fab-GlycoA) (VH, as listed by the source limits assumed, chain 1 of 2): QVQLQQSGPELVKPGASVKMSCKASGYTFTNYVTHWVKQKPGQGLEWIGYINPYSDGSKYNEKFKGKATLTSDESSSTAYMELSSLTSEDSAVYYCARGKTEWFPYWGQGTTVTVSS
Chain of LRID Fab fused to the transmembrane portion of glycophorin A, on SP2/0 cells (Fab-GlycoA) (VL, as listed by the source limits assumed, chain 2 of 2): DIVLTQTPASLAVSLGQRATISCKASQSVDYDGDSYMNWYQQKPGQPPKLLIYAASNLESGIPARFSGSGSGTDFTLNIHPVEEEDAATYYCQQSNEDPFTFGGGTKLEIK
Chain of LRID Fab fused to the GPI signal sequence from decay accelerating factor, on SP2/0 cells (Fab-GPI) (VH, as listed by the source limits assumed, chain 1 of 2): as the sequence (VH, as listed by the source limits assumed, chain 1 of 2) above
Chain of LRID Fab fused to the GPI signal sequence from decay accelerating factor, on SP2/0 cells (Fab-GPI) (VL, as listed by the source limits assumed, chain 2 of 2): as the sequence (VL, as listed by the source limits assumed, chain 2 of 2) above

B1: SM03 (antibody, V domains shown)
VH: QVQLQESGGGLVKPGGSLKLSCAASGFAFSIYDMSWVRQTPEKRLEWVAYISSGGGTTYYPDTVKGRFTISRDNAKNTLYLQMSSLKSEDTAMYYCARHSGYGSSYGVLFAYWGQGTLVTVSS
VL: DIQLTQTTSSLSASLGDRVTISCRASQDISNYLNWYQQKPDGTVKLLIYYTSILHSGVPSRFSGSGSGTDYSLTISNLEQEDFATYFCQQGNTLPWTFGGGTKLEIKR
modifications: here or on the partner: The mature protein on cells carries a GPI anchor in place of the cleaved DAF signal; the letters cannot show this.
On to B1, for which the CMC activities, maximum killing in test [1] and in test [2] was more than 90% each time. In addition, the CMC killing of surrogate target cells, EC50 in test [1] worked out at 220 µg/mL; in test [2], 130 µg/mL.
